Non-standard residues stand in square brackets, D forms with d. No end group written: not given here. *: point of attachment. FITC = O=C1OC2(c3ccc(O)cc3Oc3cc(O)ccc32)c2ccc(NC(=S)*)cc21; pS = N[C@@H](COP(=O)(O)O)C(=O)O; Ahx = NCCCCCC(=O)O
Key:
Details in all cases: both partners purified
14-3-3σ (full length) = molecular target: T1, 14-3-3σ (full length) (human, UniProt P31947 1-248); test: ITC; peptide titrated into the cell containing the 14-3-3 protein, 18 injections of 2 µl, 25°C; 50 mM Tris pH 7.5, 150 mM NaCl, 5 mM MgCl2, 2 mM 2-mercaptoethanol, 0.05% Tween-20 (reducing conditions)
T1 construct: 14-3-3 protein sigma, human, full length; Expressed from a pPRoeX-Htb vector; also called 14-3-3 isoform σ; the σ isoform; source: E. coli NiCo21(DE3), purified (nickel column, TEV cleavage, second nickel column, SEC)
T1 sequence (looked up): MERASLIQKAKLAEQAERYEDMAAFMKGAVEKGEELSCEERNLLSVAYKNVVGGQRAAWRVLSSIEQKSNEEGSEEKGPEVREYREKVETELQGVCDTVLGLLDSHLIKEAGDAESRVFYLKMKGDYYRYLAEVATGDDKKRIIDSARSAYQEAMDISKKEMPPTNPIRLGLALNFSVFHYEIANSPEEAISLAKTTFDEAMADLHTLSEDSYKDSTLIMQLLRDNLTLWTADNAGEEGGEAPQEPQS

14-3-3τ (full length) = molecular target: T2, 14-3-3τ (full length) (human, UniProt P27348 1-245); test: fluorescence polarisation; 14-3-3 isoforms (full length) serially diluted twofold in the presence of 10 nM FITC-labelled peptide; 50 mM Tris pH 7.5, 150 mM NaCl, 5 mM MgCl2, 0.05% Tween-20 (no reducing agent listed); one-site specific binding model
T2 construct: 14-3-3 protein theta (tau), human, full length; Expressed from a pPRoeX-Htb vector; also called 14-3-3 isoform τ; source: E. coli NiCo21(DE3), purified (nickel column, TEV cleavage, second nickel column, SEC)
T2 sequence (looked up): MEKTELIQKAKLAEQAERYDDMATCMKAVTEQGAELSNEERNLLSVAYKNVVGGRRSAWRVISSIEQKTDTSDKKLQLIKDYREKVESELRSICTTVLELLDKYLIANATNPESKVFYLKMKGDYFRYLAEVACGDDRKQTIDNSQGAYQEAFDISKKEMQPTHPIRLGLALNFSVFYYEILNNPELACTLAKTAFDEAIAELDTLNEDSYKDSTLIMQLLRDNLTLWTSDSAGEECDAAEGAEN

14-3-3ɛ (full length) = molecular target: T3, 14-3-3ɛ (full length) (human, UniProt P62258 1-255); test: as above
T3 construct: 14-3-3 protein epsilon, human, full length; Expressed from a pPRoeX-Htb vector; also called 14-3-3 isoform ɛ; source: E. coli NiCo21(DE3), purified (nickel column, TEV cleavage, second nickel column, SEC)
T3 sequence (looked up): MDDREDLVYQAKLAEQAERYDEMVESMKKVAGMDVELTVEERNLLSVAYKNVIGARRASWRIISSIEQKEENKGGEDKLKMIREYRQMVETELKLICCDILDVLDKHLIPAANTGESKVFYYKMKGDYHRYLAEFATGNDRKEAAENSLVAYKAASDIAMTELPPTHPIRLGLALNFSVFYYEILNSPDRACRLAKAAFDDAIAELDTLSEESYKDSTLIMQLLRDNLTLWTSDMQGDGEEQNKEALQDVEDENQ

14-3-3ζ (full length) = molecular target: T4, 14-3-3ζ (full length) (human, UniProt P63104 1-245); test: as above
T4 construct: 14-3-3 protein zeta/delta, human, full length; Expressed from a pPRoeX-Htb vector; also called 14-3-3 isoform ζ; source: E. coli NiCo21(DE3), purified (nickel column, TEV cleavage, second nickel column, SEC)
T4 sequence (looked up): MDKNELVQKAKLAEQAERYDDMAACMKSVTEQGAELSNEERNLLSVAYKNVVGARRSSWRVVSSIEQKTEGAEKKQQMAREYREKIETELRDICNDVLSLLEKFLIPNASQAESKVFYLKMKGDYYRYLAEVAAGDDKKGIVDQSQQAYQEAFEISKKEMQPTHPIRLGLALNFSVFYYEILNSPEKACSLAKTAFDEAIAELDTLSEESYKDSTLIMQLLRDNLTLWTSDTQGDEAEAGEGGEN

- Kd (14-3-3σ (full length)): 4.8 ± 0.8 µM
- binding result (14-3-3τ (full length)): binds
- binding result (14-3-3ɛ (full length)): binds
- binding result (14-3-3ζ (full length)): binds
B1: SHN3pS542 peptide, N-terminally FITC-Ahx-labelled (peptide)
peptide: {FITC-Ahx}-LLRSH[pS]MPSAAC
modifications: also: phosphoserine at 542, position not mapped
notes: Schnurri-3 (SHN3, transcription factor HIVEP3), human, 12-mer around phosphorylated Ser542; also called SHN3pS542-FITC; the FITC-labelled form; source: synthetic peptide, bought: GenScript (purity >95%)

Source: paper PMC8329713, “The identification and structural analysis of potential 14-3-3 interaction sites on the bone regulator protein Schnurri-3” (Acta Crystallographica. Section F, Structural Biology …, 2021)
